In the test the target is T1, GST-tagged PAK1 (Y270-H545) (human, UniProt Q13153-1 270-545).
T1 construct: human PAK1 C terminus with the entire kinase domain, residues Y270-H545; vector pGEX4T1; also called GST-PAK1; GST-PAK1 kinase domain; source: E. coli BL21, purified; not shown: GST, N-terminal, kept
Nature of the test: ITC; 25 μM GST-PAK1 in the cell titrated with 100 μM sortilin-cd or peptide in 28 steps of 10 μl at 34°C; 100 mM NaCl, 50 mM Tris-HCl pH 7.5 (pH 7.4 in the results); one set of sites model. The note with it: both partners purified. (In ITC the heat of successive injections is recorded.)

T1 sequence (Q13153 270-545): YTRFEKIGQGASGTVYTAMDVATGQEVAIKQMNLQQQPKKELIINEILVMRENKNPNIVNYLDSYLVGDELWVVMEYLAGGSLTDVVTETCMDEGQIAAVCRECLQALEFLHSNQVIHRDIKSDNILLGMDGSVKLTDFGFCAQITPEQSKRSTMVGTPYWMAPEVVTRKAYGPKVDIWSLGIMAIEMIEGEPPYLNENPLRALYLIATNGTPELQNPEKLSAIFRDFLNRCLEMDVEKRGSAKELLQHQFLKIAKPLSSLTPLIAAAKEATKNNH

B1: complete sortilin cytoplasmic domain (K779-E831), GST tag removed (domain or fragment, human, UniProt Q99523-1 779-831, looked up)
chain: KKYVCGGRFLVHRYSVLQQHAEANGVDGVDALDTASHTNKSGYHDDSDEDLLE
notes: human sortilin cytoplasmic domain K779-E831 (K1-E53 of the cytoplasmic domain); vector pGEX4T1; also called sortilin-cd; wt sortilin-cd; source: E. coli BL21, purified, GST tag removed by thrombin cleavage; not shown: GST, N-terminal, cleaved
Turning to B1, the Kd (commonly the equilibrium constant for the complex coming apart) was approximately 2000 nM.
